Source: PMC5045792

Legend:
[1] = biological target: ToxR-TM-MBP chimera with the transmembrane domain of the FtsI homolog annotated for S. pneumoniae (S. pneumoniae); assay: TOXGREEN
[2] = biological target: ToxR-TM-MBP chimera with the transmembrane domain of the FtsI homolog annotated for S. pyogenes (S. pyogenes)

Row | Substance | GFP expression, percent of GpA [1] | GFP expression, percent of GpA [2]
1 | ToxR-TM-MBP chimera with the transmembrane domain of the FtsI homolog annotated for S. pneumoniae (domain or fragment) | > 100 % of GpA | –
2 | ToxR-TM-MBP chimera with the transmembrane domain of the FtsI homolog annotated for S. pyogenes (domain or fragment) | – | > 100 % of GpA
